# Source: patent US20240400652A1
# pKd: −log10 of the molar value. Read-outs that look alike come from different tables or passages of the source.
# Columns and labels:
# [1] = molecular target: Deglycosylated SARS-CoV-2 RBD (SARS-CoV-2) (UniProt P0DTC2)
# [2] = molecular target: SARS-CoV-2 Spike protein on pseudotyped virus (SARS-CoV-2) (UniProt P0DTC2); assay: cell-based or functional assay
# [3] = molecular target: SARS-CoV-2 Spike protein on pseudotyped virus (SARS-CoV-2) (UniProt P0DTC2); assay: cell-based or functional assay; remark: listed apart in the source
substance,measurement,setting,value
S306 G56A (as printed in Table 5) (antibody),pKd,[1],9.15
same,koff,[1],0.00024 s⁻¹
same,kon,[1],340000 M⁻¹ s⁻¹
S309 LS (antibody),"IC50, neutralization of SARS-CoV-2pp, DBT-ACE2 cells",[2],3.9 nM
same,"maximum neutralization, VSV pseudotype, 293T ACE2 cells",[2],34%
same,"maximum neutralization, VSV pseudotype, A549-ACE2-TMPRSS2 clone 5 cells",[2],65%
same,"maximum neutralization, VSV pseudotype, A549-ACE2-TMPRSS2 clone 10 cells",[2],42%
same,"maximum neutralization, VSV pseudotype, Huh7 cells",[2],78%
same,"maximum neutralization, VSV pseudotype, MRC5-ACE2-TMPRSS2 cells",[2],45%
same,"maximum neutralization, VSV pseudotype, Vero E6-TMPRSS2 cells",[2],96%
same,"maximum neutralization, VSV pseudotype, Vero E6 cells",[2],> 99%
same,"IC50, neutralization of SARS-CoV-2pp, DBT-ACE2 cells",[3],3.82 nM
sotrovimab (antibody),"EC50, neutralization of pseudotyped virus",[2],0.0241 µg/mL
